Assay results published in patent US20040166543.
Positions count from the first letter of the chain named.

Experiments:
[1] = system: T1, MUC1/CD (purified hexahistidine tagged MUC1 cytoplasmic domain), unphosphorylated
T1 sequence: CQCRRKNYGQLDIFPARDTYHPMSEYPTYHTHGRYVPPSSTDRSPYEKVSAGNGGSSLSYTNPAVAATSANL

MUC1/CD(Y46F) = system: T2, MUC1/CD(Y46F)
T2 sequence: T1 sequence with Y46F

MUC1/CD(T41A) = system: T3, MUC1/CD(T41A)
T3 sequence: T1 sequence with T41A

MUC1/CD (S40A/S44A) = system: T4, MUC1/CD (S40A/S44A)
T4 sequence: T1 sequence with S40A, S44A

MUC1/CD(S44A) = system: T5, MUC1/CD(S44A)
T5 sequence: T1 sequence with S44A

MUC1/CD(S40A) = system: T6, MUC1/CD(S40A)
T6 sequence: T1 sequence with S40A

Substance	phosphorylation of MUC1/CD ([γ-32P]ATP, SDS-PAGE, autoradiography) [1]	phosphorylation of MUC1/CD(Y46F) ([γ-32P]ATP, autoradiography) (MUC1/CD(Y46F))	phosphorylation ([γ-32P]ATP, autoradiography) (MUC1/CD(T41A))	phosphorylation ([γ-32P]ATP, autoradiography) (MUC1/CD (S40A/S44A))	phosphorylation ([γ-32P]ATP, autoradiography) (MUC1/CD(S44A))	phosphorylation ([γ-32P]ATP, autoradiography) (MUC1/CD(S40A))
purified c-Src polypeptide (Oncogene Research Products)	demonstrated c-Src-mediated phosphorylation of MUC1/CD	Incubation of MUC1/CD(Y46F) with c-Src demonstrated a decrease in phosphorylation as compared to that found with wild-type MUC1/CD	–	–	–	–
purified recombinant PKCδ (PanVera / Calbiochem-Novabiochem)	demonstrated phosphorylation of MUC1 CD	–	PKCδ-mediated phosphorylation of MUC1/CD(T41A) was attenuated compared to that obtained with wild-type MUC1/CD	phosphorylation of MUC1 by PKCδ was unaffected by S to A mutations of either or both of the flanking serines	phosphorylation of MUC1 by PKCδ was unaffected by S to A mutations of either or both of the flanking serines	phosphorylation of MUC1 by PKCδ was unaffected by S to A mutations of either or both of the flanking serines
